# T1: CX3 (RAD51C-XRCC3) (Homo sapiens, UniProt O43502;O43542 1-376;1-346)
# T1 sequence 1: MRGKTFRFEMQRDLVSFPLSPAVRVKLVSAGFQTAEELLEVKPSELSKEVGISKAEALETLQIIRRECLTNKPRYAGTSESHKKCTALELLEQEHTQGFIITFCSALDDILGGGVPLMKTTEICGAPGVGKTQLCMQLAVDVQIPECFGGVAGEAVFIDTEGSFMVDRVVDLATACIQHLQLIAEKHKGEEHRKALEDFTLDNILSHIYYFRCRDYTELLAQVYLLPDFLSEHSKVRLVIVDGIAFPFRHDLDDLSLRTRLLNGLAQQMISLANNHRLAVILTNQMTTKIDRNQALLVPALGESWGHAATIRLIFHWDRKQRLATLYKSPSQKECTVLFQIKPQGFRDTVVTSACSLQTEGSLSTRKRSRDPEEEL
# T1 sequence 2: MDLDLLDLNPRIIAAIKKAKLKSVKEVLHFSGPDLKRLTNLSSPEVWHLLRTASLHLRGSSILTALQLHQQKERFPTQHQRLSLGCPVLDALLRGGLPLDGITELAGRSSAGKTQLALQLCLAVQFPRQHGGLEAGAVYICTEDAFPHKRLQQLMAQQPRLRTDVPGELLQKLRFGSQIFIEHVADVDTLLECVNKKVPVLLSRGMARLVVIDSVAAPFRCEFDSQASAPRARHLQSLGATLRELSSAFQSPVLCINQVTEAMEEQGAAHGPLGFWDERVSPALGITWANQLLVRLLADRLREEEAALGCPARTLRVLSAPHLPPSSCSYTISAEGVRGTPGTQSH
# T2: BCDX2 (RAD51B-RAD51C-RAD51D-XRCC2) (Homo sapiens, UniProt O15315;O43502;O75771;O43543 1-384;1-376;1-328;1-280)
# T2 sequence 1: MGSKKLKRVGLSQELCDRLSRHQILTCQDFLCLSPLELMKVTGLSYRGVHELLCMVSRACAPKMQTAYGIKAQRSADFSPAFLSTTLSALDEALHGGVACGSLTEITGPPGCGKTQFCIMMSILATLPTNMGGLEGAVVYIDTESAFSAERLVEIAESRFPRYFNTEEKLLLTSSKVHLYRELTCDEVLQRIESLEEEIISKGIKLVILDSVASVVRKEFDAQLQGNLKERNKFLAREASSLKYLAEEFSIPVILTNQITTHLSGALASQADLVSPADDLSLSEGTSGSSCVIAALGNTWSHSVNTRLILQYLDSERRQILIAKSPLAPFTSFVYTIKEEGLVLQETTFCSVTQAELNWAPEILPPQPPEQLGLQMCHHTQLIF
# T2 sequence 2: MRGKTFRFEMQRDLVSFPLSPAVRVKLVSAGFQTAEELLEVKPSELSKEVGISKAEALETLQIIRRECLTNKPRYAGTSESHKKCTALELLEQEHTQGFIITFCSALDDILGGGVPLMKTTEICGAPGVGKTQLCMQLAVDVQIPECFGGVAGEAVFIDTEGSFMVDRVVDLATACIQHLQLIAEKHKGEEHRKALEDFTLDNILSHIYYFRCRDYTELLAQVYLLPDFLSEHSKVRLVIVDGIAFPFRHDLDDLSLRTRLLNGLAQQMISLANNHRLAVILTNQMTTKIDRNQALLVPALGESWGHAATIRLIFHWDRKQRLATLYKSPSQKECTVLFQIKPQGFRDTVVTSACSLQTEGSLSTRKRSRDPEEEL
# T2 sequence 3: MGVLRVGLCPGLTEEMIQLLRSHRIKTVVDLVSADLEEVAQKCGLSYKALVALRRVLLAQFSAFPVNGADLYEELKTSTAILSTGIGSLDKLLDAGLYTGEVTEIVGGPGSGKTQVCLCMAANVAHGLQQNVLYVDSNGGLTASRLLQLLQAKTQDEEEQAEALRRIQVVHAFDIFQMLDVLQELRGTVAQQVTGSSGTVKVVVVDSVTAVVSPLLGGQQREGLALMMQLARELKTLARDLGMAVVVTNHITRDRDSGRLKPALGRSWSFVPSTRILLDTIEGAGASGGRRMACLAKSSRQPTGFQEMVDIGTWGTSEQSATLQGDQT
# T2 sequence 4: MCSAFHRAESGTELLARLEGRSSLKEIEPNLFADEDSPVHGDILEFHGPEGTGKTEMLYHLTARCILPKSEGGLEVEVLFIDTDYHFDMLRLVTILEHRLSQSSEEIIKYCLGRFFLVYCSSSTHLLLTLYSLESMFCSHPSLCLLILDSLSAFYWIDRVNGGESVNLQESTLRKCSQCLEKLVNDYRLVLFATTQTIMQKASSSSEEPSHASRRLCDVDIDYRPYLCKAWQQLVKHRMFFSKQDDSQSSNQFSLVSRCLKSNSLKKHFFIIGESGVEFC
# T3: His6-XRCC2 (of the BCDX2 complex) (human, UniProt O43543 1-280)
# T3 construct: human XRCC2, cDNA; a TEV cutting site stands between the tag and the gene; No TEV cleavage is described in the purification; source: Expi293F cells, transfected, co-expressed from pcDNA3.4-tetrad-BCDX2; purified as part of the complex (Ni-NTA, anti-Flag M2 agarose, Superdex 200); not shown: His6, N-terminal, kept
# T3 sequence (looked up): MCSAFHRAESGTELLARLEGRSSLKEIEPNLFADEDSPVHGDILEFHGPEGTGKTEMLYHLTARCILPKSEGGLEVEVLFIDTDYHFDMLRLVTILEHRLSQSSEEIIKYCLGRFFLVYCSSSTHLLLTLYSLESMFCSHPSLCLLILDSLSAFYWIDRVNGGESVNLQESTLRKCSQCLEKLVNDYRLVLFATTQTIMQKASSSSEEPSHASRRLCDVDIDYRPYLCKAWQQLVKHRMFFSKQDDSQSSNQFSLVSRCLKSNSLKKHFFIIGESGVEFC
# Experiments:
# [1] = target: Flag-RAD51C (of the BCDX2 complex) (human) (UniProt O43502); test: native MS; purified BCDX2 in 500 mM ammonium acetate pH 7.5; low activation energy for the intact complex, in-source trapping (-50 to -250 V) to dissociate it
# [2] = target: T1, CX3 (RAD51C-XRCC3); test: EMSA; 1 mM ATP, 58 nM DNA; Buffer E (composition not in the material), 37 °C, 10 min; paralogs: 50 mM KCl, 1 mM ATP, 0.8% agarose gel; RAD51: 100 mM KCl, 2 mM ATP, 6% TBE-PAGE; settings: protein: recombinant, tags: N-terminal His6-Flag on RAD51C, copies: 1;1, 25 bp duplex
# [3] = target: T2, BCDX2 (RAD51B-RAD51C-RAD51D-XRCC2); test: as above; settings: protein: recombinant, tags: N-terminal Flag on RAD51C, N-terminal His6 on XRCC2, TEV sites, copies: 1;1;1;1
# [4] = target: T3, His6-XRCC2 (of the BCDX2 complex); test: native MS; purified BCDX2 in 500 mM ammonium acetate pH 7.5; low activation energy for the intact complex, in-source trapping (-50 to -250 V) to dissociate it; settings: both partners purified
molecule,measurement,setting,value
RAD51B (from UniProt O15315 1-384) (natural protein),stoichiometry N,[1],1
"5' overhang DNA (oligo 7 + oligo 8) (mixed, oligo 8: phosphorothioate bonds at both ends (first 5 and last 5 linkages)) DNA 1: GGGTGAACCTGCAGGTGGGCAAAGA DNA 2: ACGCTGCCGAATTCTACCAGTGCCTTGCTAGGACATCTTTGCCCACCTGCAGGTTCACCC",binding result,"[2]; label: 5' Cy3 on oligo 7, 5' overhang 35 nt on strand 2",binds
same,binding result,"[3]; label: 5' Cy3 on oligo 7, 25 bp duplex, 5' overhang 35 nt on strand 2",binds
"3' overhang DNA (oligo 9 + oligo 8) (mixed, oligo 8: phosphorothioate bonds at both ends (first 5 and last 5 linkages)) DNA 1: AGGCACTGGTAGAATTCGGCAGCGT DNA 2: ACGCTGCCGAATTCTACCAGTGCCTTGCTAGGACATCTTTGCCCACCTGCAGGTTCACCC",binding result,"[2]; label: 3' Cy3 on oligo 9, 3' overhang 35 nt on strand 2",binds
same,binding result,"[3]; label: 3' Cy3 on oligo 9, 25 bp duplex, 3' overhang 35 nt on strand 2",binds
dsDNA 55 bp (oligo 13 + oligo 14) (dsDNA) DNA 1: TTAGAGCTTAATTGCTGAATCTGGTGCTGTGGGTGAACCTGCAGGTGGGCAAAGA DNA 2: TCTTTGCCCACCTGCAGGTTCACCCACAGCACCAGATTCAGCAATTAAGCTCTAA,binding result,"[3]; label: 5' Cy3 on oligo 13, blunt",no binding
"RAD51D (natural protein, human, UniProt O75771 1-328, looked up, No tag is described on this chain; also called D (in BCDX2 and DX2); source: Expi293F cells, transfected, co-expressed with the other paralogs from one plasmid; purified as part of the complex (Ni-NTA, anti-Flag M2 agarose, Superdex 200)) MGVLRVGLCPGLTEEMIQLLRSHRIKTVVDLVSADLEEVAQKCGLSYKALVALRRVLLAQFSAFPVNGADLYEELKTSTAILSTGIGSLDKLLDAGLYTGEVTEIVGGPGSGKTQVCLCMAANVAHGLQQNVLYVDSNGGLTASRLLQLLQAKTQDEEEQAEALRRIQVVHAFDIFQMLDVLQELRGTVAQQVTGSSGTVKVVVVDSVTAVVSPLLGGQQREGLALMMQLARELKTLARDLGMAVVVTNHITRDRDSGRLKPALGRSWSFVPSTRILLDTIEGAGASGGRRMACLAKSSRQPTGFQEMVDIGTWGTSEQSATLQGDQT",stoichiometry N,[4],1

# Reference: publication PMC10681713, “RAD51 paralogs synergize with RAD51 to protect reversed forks from cellular nucleases” (Nucleic Acids Research, 2023)
